Test [1] concerns the target T1, human BCMA-Fc (human).
T1 chain: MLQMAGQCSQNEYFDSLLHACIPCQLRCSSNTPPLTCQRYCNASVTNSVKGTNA
The test can be described thus: SPR, 25C.

Test [2] deals with cynomolgus BCMA-Fc (cynomolgus). Briefly: SPR, 25C. A general note: SPR reads the build-up and loss of mass on a sensor chip optically.
Sequence of cynomolgus BCMA-Fc (cynomolgus) (chain, as listed by the source): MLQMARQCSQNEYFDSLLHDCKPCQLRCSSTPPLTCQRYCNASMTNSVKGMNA

B1: P1AG5062 (E04 parental) (antibody, V domains shown)
VH: QVQLQQPGAELVKPGASVKLSCKASGYTFTNYWMHWVKQRPGQGLEWIGIIHPNSGSTNYNEKFKSKATLTVDKSSSTAYMQLSSLTSEDSAVYYCARGIYDYPFAYWGQGTLVTVSS
VL: DIVLTQSPASLAVSLGQRATISCRASESVSIHGTHLMHWYQQKPGQPPKLLIYAASNLESGVPARFSGSGSETDFTLNIHPVEEEDAATYFCQQSIEDPYTFGGGTKLEIK
Usually Kd stands for the free concentration of one partner at which half of the binding sites on the other are occupied at equilibrium, for simple one-to-one binding. For the molecule B1, the results for the Kd in test [1] and in test [2] were 3.1 nM and 33 nM, respectively.

B2: P1AG5007 (E04_VH1a/VL1e) (antibody, V domains shown)
VH: QVQLVQSGAEVKKPGASVKVSCKASGYTFTNYWMHWVRQAPGQGLEWMGIIHPNSGSTNYNEKFQGRVTMTRDTSTSTVYMELSSLRSEDTAVYYCARGIYDYPFAYWGQGTLVTVSS
VL: DIQMTQSPSSLSASVGDRVTITCRASESVSIHGTHLMHWYQQKPGKAPKLLIYAASSLQSGVPSRFSGSGSGTDFTLTISSLQPEDFATYYCQQSIEDPYTFGGGTKVEIK
As to B2, the equilibrium dissociation constant (Kd) in test [1] came out at 3 nM; in test [2], 12 nM.

B3: P1AG5044 (E04_VH1b/VL1b) (antibody, V domains shown)
VH: QVQLVQSGAEVKKPGASVKVSCKASGYTFTNYWMHWVRQAPGQGLEWMGIIHPNSGSTNYNEKFQGRVTMTVDKSTSTVYMELSSLRSEDTAVYYCARGIYDYPFAYWGQGTLVTVSS
VL: DIQMTQSPSSLSASVGDRVTITCRASESVSIHGTHLMHWYQQKPGKAPKLLIYAASNLESGVPSRFSGSGSETDFTLTISSLQPEDFATYYCQQSIEDPYTFGGGTKVEIK
Regarding B3, the results for the equilibrium dissociation constant (Kd) in test [1] and in test [2] were 1.8 nM and 20 nM, respectively.

B4: P1AG5004 (E04_VH1a/VL1b) (antibody, V domains shown)
VH: QVQLVQSGAEVKKPGASVKVSCKASGYTFTNYWMHWVRQAPGQGLEWMGIIHPNSGSTNYNEKFQGRVTMTRDTSTSTVYMELSSLRSEDTAVYYCARGIYDYPFAYWGQGTLVTVSS
VL: DIQMTQSPSSLSASVGDRVTITCRASESVSIHGTHLMHWYQQKPGKAPKLLIYAASNLESGVPSRFSGSGSETDFTLTISSLQPEDFATYYCQQSIEDPYTFGGGTKVEIK
For the molecule B4, the Kd in test [1] turned out to be 2.5 nM; in test [2], 16 nM.

B5: P1AG5031 (54_VH2a/VL2a) (antibody, V domains shown)
VH: EVQLLESGGGLVQPGGSLRLSCAASGFTFSNAWMDWVRQAPGKGLEWVSQITAKSNNYATYYADSVKGRFTISRDNSKNTLYLQMNSLRAEDTAVYYCTDDGYHWGQGTLVTVSS
VL: DIQMTQSPSSLSASVGDRVTITCRASEDIRNGLAWYQQKPGKAPKLLIYNANSLHTGVPSRFSGSGSGTDFTLTISSLQPEDFATYYCEDTSKYPYTFGQGTKLEIK
B5: the Kd worked out at 2.4 nM in test [1] and 4.7 nM in test [2].

B6: P1AG5080 (54_VH1a_Y292D/VL2a) (antibody, V domains shown)
VH: EVQLVESGGGLVKPGGSLRLSCAASGFTFSNAWMDWVRQAPGKGLEWVGQITAKSNNYATDYAAPVKGRFTISRDDSKNTLYLQMNSLKTEDTAVYYCTDDGYHWGQGTLVTVSS
VL: DIQMTQSPSSLSASVGDRVTITCRASEDIRNGLAWYQQKPGKAPKLLIYNANSLHTGVPSRFSGSGSGTDFTLTISSLQPEDFATYYCEDTSKYPYTFGQGTKLEIK
For the molecule B6, the Kd in test [1] was found to be 1.3 nM; in test [2], 4.3 nM.

B7: P1AG5027 (54_VH1b/VL1a_L1_pGL) (antibody, V domains shown)
VH: EVQLVESGGGLVKPGGSLRLSCAASGFTFSNAWMDWVRQAPGKGLEWIAQITAKSNNYATYYAAPVKGRFTISRDDSKNTLYLQMNSLKTEDTAVYYCTDDGYHWGQGTLVTVSS
VL: AIQMTQSPSSLSASVGDRVTITCRASEDIRNDLGWYQQKPGKAPKLLIYNANSLHTGVPSRFSGSGSGTDFTLTISSLQPEDFATYYCEDTSKYPYTFGQGTKLEIK
As for B7, the dissociation constant (Kd) was found to be 1.7 nM in test [1] and 1.2 nM in test [2].

B8: P1AG5061 (54 parental) (antibody, V domains shown)
VH: EVQLVESGGGLVKPGESLRLSCAASGFTFSNAWMDWVRQAPGKRLEWIAQITAKSNNYATYYAAPVKGRFTISRDDSKNTLYLQMNSLKKEDTAVYYCTDDGYHWGQGTLVTVSS
VL: AIQMTQSPSSLSASVGDRVTIACRASEDIRNGLAWYQQKPGKAPKLLIYNANSLHTGVPSRFSGSGSGTDFTLTISSLQPEDEAIYYCEDTSKYPYTFGQGTKLEIK
On to B8, for which the figures for the Kd in test [1] and in test [2] were 1.4 nM and 1.9 nM, respectively.

(Values after US20260285998 (published 2026).)
